Experiments:
Assay type in all cases: biochemical
[1] = Enzyme kinetic study of 7β-HSDH mutants, DHCA kinetics with NADH as cofactor; conditions: 0.5 mM NADH; for vmax (maximal specific enzyme activity): substrate DHCA
Protocol: (§1) Enzyme activity determinations were performed at 30° C. in the microtiter plate photometer with a sample volume of 250 μL, in which the change in the NAD(P)H concentration (ε 340=6.22 mL μmol^−1 cm^−1) was monitored at a wavelength of λ=340 nm. Here, the activities were determined by linear regression in the part of the reaction proceeding linearly. For this, the sample to be tested was appropriately diluted with potassium phosphate buffer (50 mM, pH 8.0) and treated with substrate and cofactor. The final concentrations of substrate and cofactor were 10 mM DHCA and 100 μM NADPH for 7β-HSDH, 10 mM DHCA and 100 μM NADH for 3α-HSDH, and 200 mM glucose and 1000 μM NAD(P) for GDH.
The mutants created were assessed by means of enzyme kinetic studies. For the study of the DHCA kinetics, 0.5 mM NADH was used as the cofactor (FIG. 9), while for the study of the NADH kinetics, 10 mM DHCA was used as the substrate (FIG. 10). From the plots of the DHCA kinetics, the characteristic curve shapes of the Michaelis-Menten kinetics can be discerned for the 7β-HSDH mutants, and no substrate inhibition was observed. Accordingly, the classical Michaelis-Menten model (equation 1) was used for the evaluation of the kinetic parameters.
[formula] EAX: specific enzyme activity, U mg^−1=μmol min^−1 mg^−1 vmax: maximal specific enzyme activity, U mg^−1=μmol min^−1 mg^−1 cs: substrate or cofactor concentration, mol L^−1 Km: half-saturation concentration, mol L^−1

[2] = First activity assay of purified 7β-HSDH G39D with NADPH or NADH
Protocol: as §1, with “The final concentrations of substrate and cofactor were 10 mM DHCA and 100 μM NADPH for 7β-HSDH, 10 mM DHCA and 100 μM NADH for 3α-HSDH, and 200 mM glucose and 1000 μM NAD(P) for GDH.” left out
The G39D mutant of the 7β-HSDH was produced as described in WO 2012/080504. The protein was expressed with an N-terminal His tag and purified by IMAC.

[3] = Single-stage biotransformation of DHCA to 3,12-diketo-UDCA with purified NADH-dependent 7β-HSDH mutants; conditions: after 16 hrs; 0.2 mg mL^−1 7β-HSDH, 10 U mL^−1 GDH, 0.5 mM NAD, 50 mM DHCA, pH 8.0, 30° C.

Molecule | Km [1] | vmax (maximal specific enzyme activity) [1] | NADH activity [2] | NADPH activity ([2]; 10 mM DHCA, 0.5 mM NADPH and pH 8.0) | vmax (maximal specific enzyme activity) ([1]; listed as 7β-HSDH DFK) | vmax (maximal specific enzyme activity) ([1]; listed as 7β-HSDH DFKG) | conversion of DHCA to 3,12-diketo-UDCA [3]
G39D: 7β-HSDH from Collinsella aerofaciens with substitution G39D, produced as described in WO 2012/080504 (protein) MNLREKYGEWGLILGATEGVGKAFCEKIAAGGMNVVMVDRREEKLNVLAGEIRETYGVETKVVRADFSQPGAAETVFAATEGLDMGFMSYVACLHSFGKIQDTPWEKHEAMINVNVVTFLKCFHHYMRIFAAQDRGAVINVSSMTGISSSPWNGQYGAGKAFILKMTEAVACECEGTGVDVEVITLGTTLTPSLLSNLPGGPQGEAVMKIALTPEECVDEAFEKLGKELSVIAGQRNKDSVHDWKANHTEDEYIRYMGSFYRD | 660 ± 120 µM | 2.90 ± 0.16 U mg^−1 | marked NADH activity | 0.040±0.005 U mg^−1 |  |  | 
DF: 7β-HSDH mutant with amino acid substitutions G39D R40F compared to the wild type sequence (protein) MNLREKYGEWGLILGATEGVGKAFCEKIAAGGMNVVMVDFREEKLNVLAGEIRETYGVETKVVRADFSQPGAAETVFAATEGLDMGFMSYVACLHSFGKIQDTPWEKHEAMINVNVVTFLKCFHHYMRIFAAQDRGAVINVSSMTGISSSPWNGQYGAGKAFILKMTEAVACECEGTGVDVEVITLGTTLTPSLLSNLPGGPQGEAVMKIALTPEECVDEAFEKLGKELSVIAGQRNKDSVHDWKANHTEDEYIRYMGSFYRD | 420 ± 60 µM | 3.70 ± 0.13 U mg^−1 |  |  |  |  | 
DFK: 7β-HSDH mutant with amino acid substitutions G39D R40F R41K compared to the wild type sequence (protein) MNLREKYGEWGLILGATEGVGKAFCEKIAAGGMNVVMVDFKEEKLNVLAGEIRETYGVETKVVRADFSQPGAAETVFAATEGLDMGFMSYVACLHSFGKIQDTPWEKHEAMINVNVVTFLKCFHHYMRIFAAQDRGAVINVSSMTGISSSPWNGQYGAGKAFILKMTEAVACECEGTGVDVEVITLGTTLTPSLLSNLPGGPQGEAVMKIALTPEECVDEAFEKLGKELSVIAGQRNKDSVHDWKANHTEDEYIRYMGSFYRD | 290 ± 50 µM | 5.91 ± 0.23 U mg^−1 |  |  | 5.91±0.23 U mg^−1 |  | 
G39D R40I: previously reported 7β-HSDH double mutant G39D R40I, reference, previously most active mutant (protein) MNLREKYGEWGLILGATEGVGKAFCEKIAAGGMNVVMVDIREEKLNVLAGEIRETYGVETKVVRADFSQPGAAETVFAATEGLDMGFMSYVACLHSFGKIQDTPWEKHEAMINVNVVTFLKCFHHYMRIFAAQDRGAVINVSSMTGISSSPWNGQYGAGKAFILKMTEAVACECEGTGVDVEVITLGTTLTPSLLSNLPGGPQGEAVMKIALTPEECVDEAFEKLGKELSVIAGQRNKDSVHDWKANHTEDEYIRYMGSFYRD | 920 ± 170 µM | 4.64 ± 0.27 U mg^−1 |  |  |  |  | 
DFKG: 7β-HSDH mutant with amino acid substitutions G39D R40F R41K K44G compared to the wild type sequence (protein) MNLREKYGEWGLILGATEGVGKAFCEKIAAGGMNVVMVDFKEEGLNVLAGEIRETYGVETKVVRADFSQPGAAETVFAATEGLDMGFMSYVACLHSFGKIQDTPWEKHEAMINVNVVTFLKCFHHYMRIFAAQDRGAVINVSSMTGISSSPWNGQYGAGKAFILKMTEAVACECEGTGVDVEVITLGTTLTPSLLSNLPGGPQGEAVMKIALTPEECVDEAFEKLGKELSVIAGQRNKDSVHDWKANHTEDEYIRYMGSFYRD | 380 ± 50 µM | 5.72 ± 0.19 U mg^−1 |  |  |  | 5.72±0.19 U mg^−1 | complete conversion

Reference: US10544441B2, “Method for biocatalytic whole cell reduction of dehydrocholic acid compounds, and 7-β-hydroxysteroid dehydrogenase mutants” (Pharmazell GmbH, priority 2014, dated 2020)
